Residue numbers refer to the chain shown, from its start.
B1: can9L12VH_V108A (antibody, V domains shown)
VH: EVQLVESGGDLVKPGGSLRLSCVASGFTFSSHGMHWVRQSPGKGLQWVAVINSGGSSTYYTDAVKGRFTISRDNAKNTVYLQMNSLRAEDTAMYYCAKESVGGWEQLAGPHFDYWGQGTLVIVSS
VL: QSVLTQPTSVSGSLGQRVTISCSGSTNNIGILGASWYQLFPGKAPKLLVYGNGNRPSGVPDRFSGADSGDSVTLTITGLQAEDEADYYCQSFDTTLGAHVFGGGTHLTVL
B2: can9L12VH_W104A (antibody, V domains shown)
VH: B1 VH with W104A, A108V
VL: B1 VL
B3: can9L12VL_I31A (antibody, V domains shown)
VH: B1 VH with A108V
VL: B1 VL with I31A
B4: can9L12VL_V100A (antibody, V domains shown)
VH: B1 VH with A108V
VL: B1 VL with V100A
B5: can9L12VL_G97A (antibody, V domains shown)
VH: B1 VH with A108V
VL: B1 VL with G97A
B6: can9L12VL_I29A (antibody, V domains shown)
VH: B1 VH with A108V
VL: B1 VL with I29A
B7: can9L12VL_F92A (antibody, V domains shown)
VH: B1 VH with A108V
VL: B1 VL with F92A
B8: can9L12VL_S91A (antibody, V domains shown)
VH: B1 VH with A108V
VL: B1 VL with S91A
B9: can9L12VH_Y114A (antibody, V domains shown)
VH: B1 VH with A108V, Y114A
VL: B1 VL
B10: can9L12VL_N27A (antibody, V domains shown)
VH: B1 VH with A108V
VL: B1 VL with N27A
B11: can9L12VL_T26A (antibody, V domains shown)
VH: B1 VH with A108V
VL: B1 VL with T26A
B12: can9L12VL_L32A (antibody, V domains shown)
VH: B1 VH with A108V
VL: B1 VL with L32A
B13: can9L12VL_L96A (antibody, V domains shown)
VH: B1 VH with A108V
VL: B1 VL with L96A
B14: can9L12VL_N52A (antibody, V domains shown)
VH: B1 VH with A108V
VL: B1 VL with N52A
B15: can9L12VL_O90A (antibody, V domains shown)
VH: B1 VH with A108V
VL: B1 VL with Q90A
B16: can9L12VL_H99A (antibody, V domains shown)
VH: B1 VH with A108V
VL: B1 VL with H99A
B17: can9L12VL_N28A (antibody, V domains shown)
VH: B1 VH with A108V
VL: B1 VL with N28A
B18: can9L12VL_G30A (antibody, V domains shown)
VH: B1 VH with A108V
VL: B1 VL with G30A
B19: can9L12VL_G33A (antibody, V domains shown)
VH: B1 VH with A108V
VL: B1 VL with G33A
B20: can9L12VL_G53A (antibody, V domains shown)
VH: B1 VH with A108V
VL: B1 VL with G53A
B21: can9L12VL_T94A (antibody, V domains shown)
VH: B1 VH with A108V
VL: B1 VL with T94A
B22: can9L12VL_T95A (antibody, V domains shown)
VH: B1 VH with A108V
VL: B1 VL with T95A
B23: can9L12VL_G51A (antibody, V domains shown)
VH: B1 VH with A108V
VL: B1 VL with G51A
B24: can9L12VL_D93A (antibody, V domains shown)
VH: B1 VH with A108V
VL: B1 VL with D93A
B25: can48L2VH_F113A (antibody, V domains shown)
VH: EVQLVESGGDLVKPGGSLRLSCVASGFTFSTYGINWVRQAPGKGLQWVAYISSGGSSTYYADPVKGRFTISRDDAKNMLYLQMNSLRAEDTAIYYCAGSRYTYAYGGGYEFHAWGQGTLVTVSS
VL: QAVLNQPASVSGALGQKVTISCSGSTMDIDIFGVSWYQQLPGKAPKLLVDSDGDRPSGIPDRFSGSRSGNSGTLTITGLQAEDEADYHCQSGDSTLGALAIFGGGTHVTVL
notes: CDR scanning mutant of ZTS-842 (48L2)
B26: can48L2VH_G54A (antibody, V domains shown)
VH: B25 VH with G54A, A113F
VL: B25 VL
notes: as for B25
B27: can48L2VH_G55A (antibody, V domains shown)
VH: B25 VH with G55A, A113F
VL: B25 VL
notes: as for B25

Legend:
Assay in all cases: SPR (Biacore T200), 100 nM mAb on NGF chip, similarity to parent mAb
human NGF = biological target: T1, human NGF (human, UniProt P01138 122-241)
T1 construct: also called human Nerve Growth Factor; hN
T1 chain: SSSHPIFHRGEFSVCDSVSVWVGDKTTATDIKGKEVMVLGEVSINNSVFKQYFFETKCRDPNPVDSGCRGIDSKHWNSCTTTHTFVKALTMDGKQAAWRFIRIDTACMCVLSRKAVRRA
Source text: (§1) The region of an antibody responsible for antigen recognition represents the paratope. A paratope is created by a combination of amino acids in the complementarity determining regions (CDRs) of both the heavy and light chain variable regions. The binding between antibody and antigen is often mediated by side chains of CDR residues with side chains or carbohydrate moieties of the antigen. To help define critical side chains involved in antibody recognition alanine scanning mutagenesis was performed on each CDR residue in both the heavy and light chain, the technique as described by Cunningham and Wells (1989) Science, Vol. 244, Issue 4908, pp. 1081-1085. These mutants were then individually tested for the ability to NGF using the Biacore. […] Values were then compared to the wild type antibodies and are represented in the tables as a percent of wild type binding. The data presented in Tables 4 and 5 below are shown as a “percent similarity score” compared to wild type.
(§2) The mean response unit of four replicates of the parent mAb+/−3 standard deviations was used to generate parameters to define a threshold of response units comprising both the on- and off-rates antibody binding. The percentage of data points for each mutant fell within this threshold was then used to define a “% similarity score”. […] Results from substitution of alanine at each CDR position

canine NGF = biological target: T2, canine NGF (canine, UniProt Q29074 110-229 (pig entry), limits assumed)
T2 construct: The protein was secreted from CHO cells and purified; also called cNGF; canine β-NGF
T2 chain: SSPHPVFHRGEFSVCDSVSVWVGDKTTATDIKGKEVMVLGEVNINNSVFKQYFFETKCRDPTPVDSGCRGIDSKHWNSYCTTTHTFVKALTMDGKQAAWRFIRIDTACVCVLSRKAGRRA
Source text: as §1, §2

rat NGF = biological target: T3, rat NGF (rat, UniProt P25427 122-241)
T3 construct: also called rN
Source text: as §1, §2

T3 sequence (P25427 122-241 limits assumed): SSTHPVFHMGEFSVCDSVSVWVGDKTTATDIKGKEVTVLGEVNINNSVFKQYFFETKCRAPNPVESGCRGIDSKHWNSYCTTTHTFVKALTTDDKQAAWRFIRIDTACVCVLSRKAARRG

Binder | Percent Similarity Score (KD on hN) (human NGF) | Percent Similarity Score (KD on cN) (canine NGF) | Percent Similarity Score (KD on rN) (rat NGF)
B1 | 56.3% | 93.2% | 62%
B2 | 5.2% | 19.2% | 8.2%
B3 | 11.4% | 41.2% | 12.6%
B4 | 15.7% | 58.2% | 20.2%
B5 | 43.3% | 98.9% | 35.9%
B6 | 1.5% | 4.4% | 1.6%
B7 | 2.7% | 7.2% | 2.3%
B8 | 11.6% | 39.3% | 14.5%
B9 | 99.9% | 100% | 99.2%
B10 | 100% | 100% | 99.9%
B11 | 100% | 100% | 99.2%
B12 | 1.5% | 4.4% | 1.7%
B13 | 34.2% | 97% | 37%
B14 | 100% | 100% | 100%
B15 | 19.3% | 79.2% | 24.2%
B16 | 56.9% | 100% | 43.7%
B17 | 2.1% | 6.6% | 2.5%
B18 | 16.2% | 53.9% | 13.8%
B19 | 2.3% | 7.5% | 2.9%
B20 | 10% | 34.2% | 11.7%
B21 | 52.5% | 100% | 40%
B22 | 100% | 100% | 99.9%
B23 | 100% | 100% | 99.9%
B24 | 3.3% | 11% | 3.7%
B25 | 98.5% | 33.7% | 32.2%
B26 | 100% | 98.1% | 99.3%
B27 | 100% | 99.3% | 99.7%

Reference: US20210221899A1 (published 2021)
